In the RNAGym collection of RNA variant scans (doi:10.7554/elife.80360) one finds self-cleavage data, which are given here for 39 variants.

B1: CPEB3 Ribozyme (parent)
chain: GGGGGCCACAGCAGAAGCGUUCACGUCGCGGCCCCUGUCAGAUUCUGGUGAAUCUGCGAAUUCUGCUGU

The variants in this data set derive from B1. Kind of data set: self-cleavage, relative activity (ratio to wild type); higher = more cleavage; co-transcriptional.
Consider GGGGGCCACAGCAGAAGCGUUCACGUCGCGGCCCCUGUCAGAUUAUGGUGGAUCUGCGAAUUCUGCUGU [C45A A51G], for which the self-cleavage was 1.02.
The figure for GGGGGCCACAGCAGAAGCGUUCACGUCGCGGCCCCUGUCAGAUUAUGGUGCAUCUGCGAAUUCUGCUGU [C45A A51C] is 0.924; for GGGGGCCACAGCAGAAGCGUUCACGUCGCGGCCCCUGUCAGAUUAUGGCGAAUCUGCGAAUUCUGCUGU [C45A U49C] it is 1; for GGGGGCCACAGCAGAAGCGUUCACGUCGCGGCCCCUGUCAGAUUAUGGUGAAUCUGCGAAUUCUGCUGU [C45A] it is 0.984.
GGGGGCCACAGCAGAAGCGUUCACGUCGCGGCCCCUGUCAGAUUAAGGUGAAUCUGCGAAUUCUGCUGU [C45A U46A]: the self-cleavage was 1.01.
As for GGGGGCCACAGCAGAAGCGUUCACGUCGCGGCCCCUGUCAGAUUACGGUGAAUCUGCGAAUUCUGCUGU [C45A U46C], the self-cleavage was determined as 1.
In the case of GGGGGCCACAGCAGAAGCGUUCACGUCGCGGCCCCUGUCAGAUUAGGGUGAAUCUGCGAAUUCUGCUGU [C45A U46G] it was 0.917; in that of GGGGGCCACAGCAGAAGCGUUCACGUCGCGGCCCCUGUCAGAUUAUGGUGAAUCUGCGAAUGCUGCUGU [C45A U62G], 0.832.
Regarding GGGGGCCACAGCAGAAGCGUUCACGUCGCGGCCCCUGUCAGAUUAUGGUGAAUCUGCGAAUCCUGCUGU [C45A U62C], the self-cleavage came to 0.85.
As to GGGGGCCACAGCAGAAGCGUUCACGUCGCGGCCCCUGUCAGAUUAUGGUGAAUCUGCGAAUACUGCUGU [C45A U62A], the self-cleavage was determined as 0.846.
The figure for GGGGGCCACAGCAGAAGCGUUCACGUCGCGGCCCCUGUCAGAUUAUGGUGAAUCUGCGAAUUAUGCUGU [C45A C63A] is 0.817.
In the case of GGGGGCCACAGCAGAAGCGUUCACGUCGCGGCCCCUGUCAGAUUAUGGUGAAACUGCGAAUUCUGCUGU [C45A U53A] it was 0.87; in that of GGGGGCCACAGCAGAAGCGUUCACGUCGCGGCCCCUGUCAGAUUAUGGUGAAUCUGCGCAUUCUGCUGU [C45A A59C], 0.613.
Consider GGGGGCCACAGCAGAAGCGUUCACGUCGCGGCCCCUGUCAGAUUAUGGUGAAUCUGCGUAUUCUGCUGU [C45A A59U], for which the self-cleavage turned out to be 0.793.
In the case of GGGGGCCACAGCAGAAGCGUUCACGUCGCGGCCCCUGUCAGAUUAUGCUGAAUCUGCGAAUUCUGCUGU [C45A G48C] it was 1.01; in that of GGGGGCCACAGCAGAAGCGUUCACGUCGCGGCCCCUGUCAGAUUAUGUUGAAUCUGCGAAUUCUGCUGU [C45A G48U], 0.976.
The figure for GGGGGCCACAGCAGAAGCGUUCACGUCGCGGCCCCUGUCAGAUUAUGGUGAAUCGGCGAAUUCUGCUGU [C45A U55G] is 0.475.
In the case of GGGGGCCACAGCAGAAGCGUUCACGUCGCGGCCCCUGUCAGAUUAUGGUGAAUCAGCGAAUUCUGCUGU [C45A U55A] it was 0.534; in that of GGGGGCCACAGCAGAAGCGUUCACGUCGCGGCCCCUGUCAGAUUAUGGUGAAUCUGCGAAUUCUGCUCU [C45A G68C], 0.965; in that of GGGGGCCACAGCAGAAGCGUUCACGUCGCGGCCCCUGUCAGAUUAUGGUGAAUCUGCGAAUUCUGCUAU [C45A G68A], 1.02.
For the variant GGGGGCCACAGCAGAAGCGUUCACGUCGCGGCCCCUGUCAGAUUAUGGUGAAUCUGCGAAUUCUGCUUU [C45A G68U], the self-cleavage was 0.998.
Turning to GGGGGCCACAGCAGAAGCGUUCACGUCGCGGCCCCUGUCAGAUUAUGGUGAAUCUGCGAAUUCUGGUGU [C45A C66G], the self-cleavage was found to be 0.788.
In the case of GGGGGCCACAGCAGAAGCGUUCACGUCGCGGCCCCUGUCAGAUGCUGGUGAAUCUGCGAAUUCUGCUGG [U44G U69G] it was 1.04.
As to GGGGGCCACAGCAGAAGCGUUCACGUCGCGGCCCCUGUCAGAUUAUGGUGAAUCUGCGAAGUCUGCUGU [C45A U61G], the self-cleavage was determined as 0.6.
The figure for GGGGGCCACAGCAGAAGCGUUCACGUCGCGGCCCCUGUCAGAUUAUGGUGAAUCUGCGAAAUCUGCUGU [C45A U61A] is 0.86; for GGGGGCCACAGCAGAAGCGUUCACGUCGCGGCCCCUGUCAGAUUAUGGUGAUUCUGCGAAUUCUGCUGU [C45A A52U] it is 0.919; for GGGGGCCACAGCAGAAGCGUUCACGUCGCGGCCCCUGUCAGAUUAUGGUGAAUCUGCGAAUUCUCCUGU [C45A G65C] it is 0.533.
For GGGGGCCACAGCAGAAGCGUUCACGUCGCGGCCCCUGUCAGAUUAUGGUGAAUCUGCGAAUUCUUCUGU [C45A G65U], the self-cleavage was 0.729.
The figure for GGGGGCCACAGCAGAAGCGUUCACGUCGCGGCCCCUGUCAGAUUAUGGUGAAUCUGCCAAUUCUGCUGU [C45A G58C] is 1.02.
The figure for GGGGGCCACAGCAGAAGCGUUCACGUCGCGGCCCCUGUCAGAUUAUGGUGAAUCUGCAAAUUCUGCUGU [C45A G58A] is 1; for GGGGGCCACAGCAGAAGCGUUCACGUCGCGGCCCCUGUCAGAUUAUGGUAAAUCUGCGAAUUCUGCUGU [C45A G50A] it is 1.02.
As for GGGGGCCACAGCAGAAGCGUUCACGUCGCGGCCCCUGUCAGAUUAUGGUGAAUGUGCGAAUUCUGCUGU [C45A C54G], the self-cleavage stood at 0.562.
In the case of GGGGGCCACAGCAGAAGCGUUCACGUCGCGGCCCCUGUCAGAUUAUGGUGAAUUUGCGAAUUCUGCUGU [C45A C54U] it was 0.926.
Regarding GGGGGCCACAGCAGAAGCGUUCACGUCGCGGCCCCUGUCAGAUUAUGGUGAAUCUUCGAAUUCUGCUGU [C45A G56U], the self-cleavage worked out at 0.695.
The figure for GGGGGCCACAGCAGAAGCGUUCACGUCGCGGCCCCUGUCAGAUUAUGGUGAAUCUCCGAAUUCUGCUGU [C45A G56C] is 0.482; for GGGGGCCACAGCAGAAGCGUUCACGUCGCGGCCCCUGUCAGAUUAUGGUGAAUCUGGGAAUUCUGCUGU [C45A C57G] it is 0.252.
As to GGGGGCCACAGCAGAAGCGUUCACGUCGCGGCCCCUGUCAGAUUAUGGUGAAUCUGCGAAUUCCGCUGU [C45A U64C], the self-cleavage was 0.842.
The figure for GGGGGCCACAGCAGAAGCGUUCACGUCGCGGCCCCUGUCAGAUUAUGGUGAAUCUGCGAAUUCGGCUGU [C45A U64G] is 0.809.
The figure for GGGGGCCACAGCAGAAGCGUUCACGUCGCGGCCCCUGUCAGAUUAUGGUGAAUCUGCGAAUUCAGCUGU [C45A U64A] is 0.821.
